The results in this text go back to US7226992B1, “Mutant Bcl-2 proteins and uses thereof” (Abbott Laboratories, priority 2000, dated 2007).

A short description of the data set: Isoelectric point of Bcl-2 / Bcl-xL proteins. The data set is classed as physicochemical, human. The following applies: pH at which the protein carries no net charge. An excerpt:
As used herein, the term “isoelectric point” (or pI) refers to the pH at which the protein carries no net charge. The isoelectric points of Bcl-2/iso1, Bcl-2/iso2, and Bcl-2/iso3 are about 7.0, 7.2 and 7.2, respectively. The mutant proteins of the present invention have an isoelectric point lower than that of wild-type Bcl-2 and preferably, in the range of 4.5 to about 6.0. More preferably, the isoelectric point of a mutant protein of the invention is from 4.5 to about 5.5. A more preferred isoelectric point is from about 5.0 to about 5.5. A most preferred isoelectric point is 5.0. Means for determining the isoelectric point of a protein are well known to those of ordinary skill in the art.

On to “Bcl-2/iso2: wild-type human Bcl-2 protein isoform 2 (SEQ ID NO:4)”, for which the isoelectric point is given as about 7.2.
